In assay [1] the target is microtubule-associated protein 2 (MAP2).
Assay [2] deals with extracellular signal-regulated kinase 1 (ERK1) (rat).

On to recombinant ERK2 (enzyme), for which the specific activity (phosphorylation of substrate) (in assay [1]; with MBP) was 1 nmol/min/mg in each case.

In the case of “catalytic subunit of phosphatase 2a (enzyme)”, the specific activity of ERK1 with MAP2 after dephosphorylation in assay [2] was found to be 4 nmol/min/mg.

In the case of “extracellular signal-regulated kinase 1 (ERK1) (enzyme)”, the specific activity with MAP2 in assay [1] turned out to be 300 nmol/min/mg.
